Series [1] deals with T1, Atto550-SERF1a (human, UniProt O75920-2 1-62).
T1 sequence: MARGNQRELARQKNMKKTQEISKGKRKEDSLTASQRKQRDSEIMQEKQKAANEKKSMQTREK
In words: fluorescence anisotropy. In general terms: Polarisation of emitted light reports the rotation of a fluorescent probe.

Series [2] deals with T2, SERF1a (human, UniProt O75920-2 1-62).
T2 sequence: T1 sequence
The series is described as follows: fluorescence anisotropy.

The next series concerns the target T3, YDL085C-A (S. cerevisiae, UniProt Q3E7B7 1-68).
T3 sequence: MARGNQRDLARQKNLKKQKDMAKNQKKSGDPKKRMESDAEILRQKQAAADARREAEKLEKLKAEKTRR
The series is described as follows: fluorescence anisotropy.

Series [3] addresses T2, SERF1a. The series is described as follows: ITC.
Series [4] concerns the target T1, Atto550-SERF1a. In words: fluorescence anisotropy. The source holds these as a separate data set.

B1: dsDNA 21mer (dsDNA)
DNA 1: ATGTGGAAAATCTCTAGCAGT
DNA 2: ACTGCTAGAGATTTTCCACAT
With B1, in the series with Atto550-SERF1a [1], the binding result is reported as “no binding”.
Consider ACUGCUAGAGAUUUUCCACAU (ssRNA) [Cy3-R21(-)], for which the Kd with SERF1a [2] was 4.81 ± 0.48 µM; with YDL085C-A, 2.35 ± 0.56 µM.
On to ACUGCUAGAGAUUUUCCACAU (ssRNA) [R21(-) / 21R(-)], for which the Kd stood at 5.99 ± 2.32 µM in the series with SERF1a [3] and 4.39 ± 1.59 µM in the series with Atto550-SERF1a [4].

The Kd is the constant that tells how readily two partners part at equilibrium. Read a low Kd as higher affinity.

The record behind these values is doi:10.1101/713511.
